Values quoted from earlier work in article PMC3522611.

Molecular target: EGFR (Homo sapiens) (UniProt P00533)

Kd: 3.8 nM
Substance: HB-EGF (from UniProt Q99075)
